Measured values: publication PMC6363454 (The Journal of Cell Biology, 2019)
Read-outs that look alike come from different tables or passages of the source.

Tests used:
[1] = target: the molecule itself; test: cryo-EM structure
[2] = target: the molecule itself; test: cryo-EM structure; remark: listed apart in the source

Protein | stoichiometry N [1] | stoichiometry N [2]
Dam1C/DASH heterodecamer (recombinant) (complex, S. cerevisiae) chain 1: MSEDKAKLGTTRSATEYRLSIGSAPTSRRSSMGESSSLMKFADQEGLTSSVGEYNENTIQQLLLPKIRELSDSIITLDSNFTRLNFIHESLADLNESLGSLLYGIMSNSWCVEFSQAPHDIQDDLIAIKQLKSLEDEKNNLVMELSNMERGIKRKKDEQGENDLAKASQNKQFNQPLFPSSQVRKYRSYDNRDKRKPSKIGNNLQVENEEDYEDDTSSEASFVLNPTNIGMSKSSQGHVTKTTRLNNNTNSKLRRKSILHTIRNSIASGADLPIENDNVVNLGDLHPNNRISLGSGAARVVNGPVTKNRNSMFSGRAERKPTESRHSVAKKTEKKINTRPPFR chain 2: MMASTSNDEEKLISTTDKYFIEQRNIVLQEINETMNSILNGLNGLNISLESSIAVGREFQSVSDLWKTLYDGLESLSDEAPIDEQPTLSQSKTK chain 3: MDSIDEQIAIKRKELQSLQKITSLTDGLKIQLTELNEQIKEMGMNADSVAQLMNNWDSIINNISQASLGLLQYAEGDYEIGPWKDSKKKESEQSNETGLEAQENDKNDEDNDEDEDLVPLPETMVRIRVDGNE chain 4: MEHNLSPLQQEVLDKYKQLSLDLKALDETIKELNYSQHRQQHSQQETVSPDEILQEMRDIEVKIGLVGTLLKGSVYSLILQRKQEQESLGSNSK chain 5: MENPHEQVQANILSRIIGNVKRLNESVAILNQELVTINNRNKNLEIMGAICDNYHSSVQFNLEATNNKKPPL chain 6: MSEQSQLDDSTIDKLIPQIFNEMRSNLNNTTNKFPKSTGGGASDNISANSNSIRSFNSITTQSLLKESESLDKITAMIKNVTAALKNNLPVYVNQVHEVCKSTNSILDSWINIHSQAGYIHKLMSDQTYLKLINDRLHNENVNTNDEDGSTLHNVIALKKKEILDLRQKLENRKGEKDAAPAKPPNQGLNPRYGVQSGRRPVPSAGISNNGRVRKTHVPASKRPSGIPRVTNRWTKPTASSSRKMFR chain 7: MDSASKEETLEKLDQEITVNLQKIDSNLSFCFHKITQDIIPHVATYSEICERIMDSTEWLGTMFQETGLVNLQANAAAPVGNAPVKSLVSNNVGIFPTSAEEASRQSQTDNGPNEADSAVHVNRDVHSMFNNDSIDDFHTANITSTGQILKLPDSSDEDTGSEAVPSREQTDLTGEGHGGADDEQDESTIQRQSRKRKISLLLQQQYGSSSSMVPSPIVPNKMRKQLAHEEHINNDGDNDDENSNNIESSPLKQGHHHPKGQADDNNEGPDEEESTKEVPKPGTIIHFSTNR chain 8: MTDALEQSVLALEGTVSVLKDSVESLKCANEPSTNLASTMLQTKRVFRLVPEYDVERSKLDLIEEVEPLVRTLGDKLRKSMGRMQRELDTLQQTYELNDLRLKKNISMDDDDALNSPDMGQEYEGRDADDVVMMASSTNEELEELKKLKEKKKQLENKLEILKQK chain 9: MGESLDRCIDDINRAVDSMSTLYFKPPGIFHNAILQGASNKASIRKDITRLIKDCNHDEAYLLFKVNPEKQSVSRRDGKEGVFDYVIKRDTDMKRNRRLGRPGEKPIIHVPKEVYLNKDRLDLNNKRRRTATTSGGGLNGFIFDTDLIGSSVISNSSSGTFKALSAVFKDDPQIQRLLYALENGSVLMEEESNNQRRKTIFVEDFPTDLILKVMAEVTDLWPLTEFKQDYDQLYHNYEQLSSKLRFIKKEVLLQDDRLKTMSQYHPSSSHDVAKIIRKEKDEIRRLEMEIANLQE chain 10: MNANKQRQYNQLAHELRELQTNLQETTKQLDIMSKQCNENLVGQLGKVHGSWLIGSYIYYMEQMLGKTQ | 17 | –
Dam1C/DASH outer kinetochore complex in yeast cells (in vivo) (complex) chain 1: MSEDKAKLGTTRSATEYRLSIGSAPTSRRSSMGESSSLMKFADQEGLTSSVGEYNENTIQQLLLPKIRELSDSIITLDSNFTRLNFIHESLADLNESLGSLLYGIMSNSWCVEFSQAPHDIQDDLIAIKQLKSLEDEKNNLVMELSNMERGIKRKKDEQGENDLAKASQNKQFNQPLFPSSQVRKYRSYDNRDKRKPSKIGNNLQVENEEDYEDDTSSEASFVLNPTNIGMSKSSQGHVTKTTRLNNNTNSKLRRKSILHTIRNSIASGADLPIENDNVVNLGDLHPNNRISLGSGAARVVNGPVTKNRNSMFSGRAERKPTESRHSVAKKTEKKINTRPPFR chain 2: MMASTSNDEEKLISTTDKYFIEQRNIVLQEINETMNSILNGLNGLNISLESSIAVGREFQSVSDLWKTLYDGLESLSDEAPIDEQPTLSQSKTK chain 3: MDSIDEQIAIKRKELQSLQKITSLTDGLKIQLTELNEQIKEMGMNADSVAQLMNNWDSIINNISQASLGLLQYAEGDYEIGPWKDSKKKESEQSNETGLEAQENDKNDEDNDEDEDLVPLPETMVRIRVDGNE chain 4: MEHNLSPLQQEVLDKYKQLSLDLKALDETIKELNYSQHRQQHSQQETVSPDEILQEMRDIEVKIGLVGTLLKGSVYSLILQRKQEQESLGSNSK chain 5: MENPHEQVQANILSRIIGNVKRLNESVAILNQELVTINNRNKNLEIMGAICDNYHSSVQFNLEATNNKKPPL chain 6: MSEQSQLDDSTIDKLIPQIFNEMRSNLNNTTNKFPKSTGGGASDNISANSNSIRSFNSITTQSLLKESESLDKITAMIKNVTAALKNNLPVYVNQVHEVCKSTNSILDSWINIHSQAGYIHKLMSDQTYLKLINDRLHNENVNTNDEDGSTLHNVIALKKKEILDLRQKLENRKGEKDAAPAKPPNQGLNPRYGVQSGRRPVPSAGISNNGRVRKTHVPASKRPSGIPRVTNRWTKPTASSSRKMFR chain 7: MDSASKEETLEKLDQEITVNLQKIDSNLSFCFHKITQDIIPHVATYSEICERIMDSTEWLGTMFQETGLVNLQANAAAPVGNAPVKSLVSNNVGIFPTSAEEASRQSQTDNGPNEADSAVHVNRDVHSMFNNDSIDDFHTANITSTGQILKLPDSSDEDTGSEAVPSREQTDLTGEGHGGADDEQDESTIQRQSRKRKISLLLQQQYGSSSSMVPSPIVPNKMRKQLAHEEHINNDGDNDDENSNNIESSPLKQGHHHPKGQADDNNEGPDEEESTKEVPKPGTIIHFSTNR chain 8: MTDALEQSVLALEGTVSVLKDSVESLKCANEPSTNLASTMLQTKRVFRLVPEYDVERSKLDLIEEVEPLVRTLGDKLRKSMGRMQRELDTLQQTYELNDLRLKKNISMDDDDALNSPDMGQEYEGRDADDVVMMASSTNEELEELKKLKEKKKQLENKLEILKQK chain 9: MGESLDRCIDDINRAVDSMSTLYFKPPGIFHNAILQGASNKASIRKDITRLIKDCNHDEAYLLFKVNPEKQSVSRRDGKEGVFDYVIKRDTDMKRNRRLGRPGEKPIIHVPKEVYLNKDRLDLNNKRRRTATTSGGGLNGFIFDTDLIGSSVISNSSSGTFKALSAVFKDDPQIQRLLYALENGSVLMEEESNNQRRKTIFVEDFPTDLILKVMAEVTDLWPLTEFKQDYDQLYHNYEQLSSKLRFIKKEVLLQDDRLKTMSQYHPSSSHDVAKIIRKEKDEIRRLEMEIANLQE chain 10: MNANKQRQYNQLAHELRELQTNLQETTKQLDIMSKQCNENLVGQLGKVHGSWLIGSYIYYMEQMLGKTQ | – | 17
